From PMC4421749

Target: microtubules assembled from bovine brain tubulin (bovine) (UniProt Q6B856)
Experiment: co-sedimentation; 0.5 μM 4R-tau with increasing taxol-stabilized microtubules, 30 min at RT, BRB80-K (BRB80 + 50 mM KCl); 230,000 x g 15 min; tau in the pellet by densitometry of Coomassie gels; hyperbolic fit; apparent Kd

4R-tau (1N4R-tau), recombinant human tau containing four microtubule-binding sites (from UniProt P10636-7 1-412) (natural protein)
Kd: 280 nM
